Data as given in publication PMC11091055 (Signal Transduction and Targeted Therapy, 2024).
Numbering of substitutions follows the chain as printed.

Key:
Experiment in all cases: SPR
Conditions in all cases: both partners purified
[1] = target: T1, SARS-CoV-2 Omicron BA.2.86 S NTD, human Fc-tagged (SARS-CoV-2 Omicron BA.2.86, strain)
T1 construct: also called BA.2.86 NTD
T1 chain: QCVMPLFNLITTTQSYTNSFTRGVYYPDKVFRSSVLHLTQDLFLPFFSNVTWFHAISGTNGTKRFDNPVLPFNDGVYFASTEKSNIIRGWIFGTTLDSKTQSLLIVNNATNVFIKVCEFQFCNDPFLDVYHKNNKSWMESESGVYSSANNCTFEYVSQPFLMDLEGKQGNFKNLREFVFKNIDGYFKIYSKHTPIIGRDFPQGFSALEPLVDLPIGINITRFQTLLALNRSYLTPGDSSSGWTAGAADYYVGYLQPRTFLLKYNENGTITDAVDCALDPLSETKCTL

[2] = target: T2, SARS-CoV-2 Omicron BA.1 S NTD, human Fc-tagged (SARS-CoV-2 Omicron BA.1, strain)
T2 construct: also called BA.1 NTD

[3] = target: T3, SARS-CoV-2 Omicron XBB S NTD, human Fc-tagged (SARS-CoV-2 Omicron XBB, strain)
T3 construct: also called XBB NTD
T3 chain: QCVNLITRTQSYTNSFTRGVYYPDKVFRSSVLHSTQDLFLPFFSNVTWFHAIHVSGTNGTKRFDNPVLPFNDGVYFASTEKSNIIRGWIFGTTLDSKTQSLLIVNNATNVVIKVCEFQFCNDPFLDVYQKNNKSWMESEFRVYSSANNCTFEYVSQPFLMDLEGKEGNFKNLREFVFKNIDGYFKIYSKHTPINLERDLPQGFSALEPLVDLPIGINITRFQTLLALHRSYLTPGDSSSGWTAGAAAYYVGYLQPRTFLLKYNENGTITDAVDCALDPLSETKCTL

[4] = target: T4, SARS-CoV-2 Omicron BA.3 S NTD, human Fc-tagged (SARS-CoV-2 Omicron BA.3, strain)
T4 construct: also called BA.3 NTD

[5] = target: T5, SARS-CoV-2 Omicron BA.2.75 S NTD, human Fc-tagged (SARS-CoV-2 Omicron BA.2.75, strain)
T5 construct: also called BA.2.75 NTD
T5 chain: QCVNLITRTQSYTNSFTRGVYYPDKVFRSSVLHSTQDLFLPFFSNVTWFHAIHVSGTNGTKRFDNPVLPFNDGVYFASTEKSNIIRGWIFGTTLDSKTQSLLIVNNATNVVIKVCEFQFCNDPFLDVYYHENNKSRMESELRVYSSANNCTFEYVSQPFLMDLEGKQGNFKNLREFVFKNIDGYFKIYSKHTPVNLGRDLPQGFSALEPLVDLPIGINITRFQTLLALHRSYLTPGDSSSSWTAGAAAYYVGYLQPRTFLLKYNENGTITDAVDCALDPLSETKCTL

[6] = target: T6, SARS-CoV-2 Delta S NTD, human Fc-tagged (SARS-CoV-2 Delta (B.1.617.2), strain)
T6 construct: also called Delta NTD

[7] = target: T7, SARS-CoV-2 Omicron EG.5.1 S NTD, human Fc-tagged (SARS-CoV-2 Omicron EG.5.1, strain)
T7 construct: also called EG.5.1 NTD
T7 chain: T3 chain with Q36H, V67A, G235V

[8] = target: T8, SARS-CoV-2 Omicron XBB.1.16 S NTD, human Fc-tagged (SARS-CoV-2 Omicron XBB.1.16, strain)
T8 construct: also called XBB.1.16 NTD
T8 chain: T3 chain with V67A, E163V, G235V

[9] = target: T9, SARS-CoV-2 Omicron BA.2.3.20 S NTD, human Fc-tagged (SARS-CoV-2 Omicron BA.2.3.20, strain)
T9 construct: also called BA.2.3.20 NTD
T9 chain: T5 chain with E131K, R136W, L141F, V194I, S241G

[10] = target: T10, SARS-CoV-2 Omicron JN.1 S NTD, human Fc-tagged (SARS-CoV-2 Omicron JN.1, strain)
T10 construct: also called JN.1 NTD
T10 chain: T1 chain

[11] = target: T11, SARS-CoV-2 Omicron XBB.1.5 S NTD, human Fc-tagged (SARS-CoV-2 Omicron XBB.1.5, strain)
T11 construct: also called XBB.1.5 NTD
T11 chain: T3 chain with V67A

[12] = target: T12, SARS-CoV-2 Lambda S NTD, human Fc-tagged (SARS-CoV-2 Lambda (C.37), strain)
T12 construct: also called Lambda NTD
T12 chain: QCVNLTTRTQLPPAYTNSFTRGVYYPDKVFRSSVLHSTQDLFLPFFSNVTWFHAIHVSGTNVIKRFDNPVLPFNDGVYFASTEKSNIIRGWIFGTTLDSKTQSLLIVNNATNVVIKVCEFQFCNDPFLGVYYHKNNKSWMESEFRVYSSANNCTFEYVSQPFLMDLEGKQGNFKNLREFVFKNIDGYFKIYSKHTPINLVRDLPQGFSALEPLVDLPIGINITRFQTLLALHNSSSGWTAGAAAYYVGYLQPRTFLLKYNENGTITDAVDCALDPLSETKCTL

[13] = target: T13, SARS-CoV-2 Omicron BA.2 S NTD, human Fc-tagged (SARS-CoV-2 Omicron BA.2, strain)
T13 construct: also called BA.2 NTD
T13 chain: T5 chain with E131K, R136W, L141F, V194I, S241G

[14] = target: T14, SARS-CoV-2 Omicron BA.5 S NTD, human Fc-tagged (SARS-CoV-2 Omicron BA.5, strain)
T14 construct: also called BA.5 NTD
T14 chain: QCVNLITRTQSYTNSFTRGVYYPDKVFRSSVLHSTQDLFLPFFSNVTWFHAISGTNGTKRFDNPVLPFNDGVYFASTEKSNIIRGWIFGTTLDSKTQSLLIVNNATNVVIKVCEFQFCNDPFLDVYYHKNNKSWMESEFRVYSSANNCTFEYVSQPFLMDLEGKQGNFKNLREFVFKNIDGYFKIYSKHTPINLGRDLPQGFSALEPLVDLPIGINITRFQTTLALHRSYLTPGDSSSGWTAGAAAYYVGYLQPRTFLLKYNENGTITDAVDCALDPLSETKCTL

Measured: Kd

B1: nanobody N235, His-tagged (VHH)
VHH: QVQLQESGGGLVQPGGSLRLSCAASGLIISRYDMSWYRQAPGKERELVATTPIPAARPQYADSVKGRFTISRDNAKNTVSLQMNSLKPEDTAVYYCNLGPESQDHNYNYWGQGTQVTVSS
< 0.2 nM: [1] | [2] | [3] | [4] | [5] | [6] | [7] | [8] | [9] | [10] | [11] | [12] | [13] | [14]
